The text below walks through data of US20200325187A1 (Genentech, published 2020).

First the molecules themselves.
T1: hVEGF-A (8-109) (human, UniProt P15692 214-315)
T1 sequence (looked up): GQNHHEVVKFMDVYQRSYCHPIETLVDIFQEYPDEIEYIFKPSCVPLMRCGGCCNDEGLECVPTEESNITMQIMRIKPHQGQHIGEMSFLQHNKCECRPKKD

T2: LRP6 E1E2 protein (human, UniProt O75581 20-630, limits assumed)
T2 construct: domain: E1E2
T2 sequence (looked up): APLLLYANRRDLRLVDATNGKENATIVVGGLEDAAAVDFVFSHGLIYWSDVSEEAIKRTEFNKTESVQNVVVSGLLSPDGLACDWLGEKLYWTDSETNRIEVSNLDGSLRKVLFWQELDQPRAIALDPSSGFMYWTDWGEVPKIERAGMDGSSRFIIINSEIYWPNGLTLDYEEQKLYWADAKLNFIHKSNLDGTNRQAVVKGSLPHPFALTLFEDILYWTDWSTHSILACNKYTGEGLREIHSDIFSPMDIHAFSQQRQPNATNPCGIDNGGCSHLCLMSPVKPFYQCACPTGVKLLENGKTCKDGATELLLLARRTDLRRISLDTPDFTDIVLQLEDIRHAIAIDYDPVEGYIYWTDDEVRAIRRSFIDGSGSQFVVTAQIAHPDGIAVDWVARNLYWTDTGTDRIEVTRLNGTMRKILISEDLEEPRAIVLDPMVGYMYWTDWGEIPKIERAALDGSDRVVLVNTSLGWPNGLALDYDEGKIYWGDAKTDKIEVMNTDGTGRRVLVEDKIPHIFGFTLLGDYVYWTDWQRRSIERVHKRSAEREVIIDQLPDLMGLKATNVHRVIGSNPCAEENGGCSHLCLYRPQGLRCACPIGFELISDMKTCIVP

The first assay concerns the target T1, hVEGF-A (8-109). The assay is described as follows: spot phage ELISA.
In the case of GCDVMQPYWGCEMDFDCLAGCVCHWYNSCGNS (designed binder) [9.63.44-80], the binding result is “binds”.
Still for that read-out and setting: next, GCDVMQPYWGCEMDFDCLAGCVCHWYNSCGRY (designed binder) [9.63.44-82]: “binds”.
On the same count and under the same terms, in the case of GCNIMLPFWGCGRDFECLAGCVCQYYQSCGPLQ (designed binder) [9.54.90-3x49] it was “binds”; in that of GCNIMLPFWGCGRDFECLAGCVCQYYQSCGWDY (designed binder) [9.54.90-3x9], “binds”; in that of GCNIMLPFWGCGRDFECLAGCVCQYYQSCGDLV (designed binder) [9.54.90-3x91], “binds”.
On to GCNIMLPFWGCGRDFECLAGCVCQYYQSCGPLI (designed binder) [9.54.90-3X83], for which the binding result is “binds”.
Same read-out and setting: next, GCNIMLPFWGCGRDFECLAGCVCQYYQSCGWPH (designed binder) [9.54.90-3x13]: “binds”.
On to GCNIMLPFWGCGRDFECLAGCVCQYYQSCGPHQ (designed binder) [9.54.90-3x33], for which the binding result is recorded as “binds”.
Same read-out and setting: in the case of GCNIMLPFWGCGRDFECLAGCVCQYYQSCGEHK (designed binder) [9.54.90-3x42] it was “binds”.
Same read-out and setting: in the case of GCNIMLPFWGCGRDFECLAGCVCQYYQSCGYLS (designed binder) [9.54.90-3x88] it was “binds”.
Regarding GCNIMLPFWGCGRDFECLAGCVCQYYQSCGTFQ (designed binder) [9.54.90-3x10], the binding result is listed as “binds”.
For the molecule GCNIMLPFWGCGRDFECLAGCVCQYYQSCGNYQ (designed binder) [9.54.90-3X50], the binding result is reported as “binds”.
Still for that read-out and setting: in the case of GCDVLQPYWGCGPDIDCLSNCICHWYNSCGRL (designed binder) [63.12.12.M5L.2x21] it was “binds”; in that of GCDVLQPYWGCGPDIDCLSNCICHWYNSCGDE (designed binder) [63.12.12.M5L.2x25], “binds”.
For GCDVLQPYWGCGPDIDCLSNCICHWYNSCGEQ (designed binder) [63.12.12.M5L.2x12], the binding result is on record as “binds”.
Still for that read-out and setting: in the case of GCDVLQPYWGCGPDIDCLSNCICHWYNSCGSL (designed binder) [63.12.12.M5L.2x29] it was “binds”; in that of GCDVLQPYWGCGPDIDCLSNCICHWYNSCGPL (designed binder) [63.12.12.M5L.2x48], “binds”.
Still for that read-out and setting: next, GCDVLQPYWGCGPDIDCLSNCICHWYNSCGQF (designed binder) [63.12.12.M5L.2x69]: “binds”; GCDVLQPYWGCGPDIDCLSNCICHWYNSCGWK (designed binder) [63.12.12.M5L.2x77]: “binds”; GCDVLQPYWGCGPDIDCLSNCICHWYNSCGPT (designed binder) [63.12.12.M5L.2x30]: “binds”.
Turning to GCDVLQPYWGCGPDIDCLSNCICHWYNSCGRT (designed binder) [63.12.12.M5L.2x2], the binding result was “binds”.

A further assay has as its target T1, hVEGF-A (8-109). Nature of the assay: spot phage ELISA. The source holds these as a separate data set. The protocol:
After four rounds of binding selection, individual phage clones were picked and inoculated into 450 μl 2YT media containing 50 µg/ml Carbenecillin and M13-KO7 helper phage in 96-well blocks, which were grown at 37° C. overnight. […] The plates were washed and bound phage was detected with anti-M13-HRP followed by TMB substrate. In these assays, phage binding to BSA alone was tested in parallel to assess background binding. […] Positive clones were subjected to DNA sequence analysis.
Turning to GCPRILMRCKQDSDCLAGCVCGPNGFCG (also called wild type EETI-II) [EETI-II], the ELISA stood at 0.01 and the “S/N vs BSA” value was determined as 1.11.
The corresponding values for GCGETVFEQFLWCKQDSDCLAGCVCGPNGFCG (designed binder) [VEGF_CKP2] are 3.2 and 48.1.
Take GCKKWQWWYMCKQDSDCLAGCVCYPWTECG (designed binder) [VEGF_CKP4]: the ELISA turned out to be 2.6 and the “S/N vs BSA” value was found to be 35.3.
The corresponding values for GCETDWYPHQIDCKQDSDCLAGCVCGPNGFCG (designed binder) [VEGF_CKP1] are 0.9 and 16.9.
As for GCQLMHPFWGCKQDSDCLAGCVCHWYRSCG (designed binder) [VEGF_CKP8], the ELISA was 3.9 and the “S/N vs BSA” value came out at 59.4.
Regarding GCQLMQPFWGCKQDSDCLAGCVCRWYHSCG (designed binder) [VEGF_CKP9.L5.43], the ELISA came out at 0.9 and the “S/N vs BSA” value was 13.6.
Take GCNIMLPFWGCGPELNCLAGCVCQYYQSCG (designed binder) [VEGF_CKP9.54.12]: the ELISA is 2.4 and the “S/N vs BSA” value is 38.8.
The matching figures for GCNIMLPFWGCGVDYLCLAGCVCQYYQSCG (designed binder) [VEGF_CKP9.54.16]: 2.4 and 30.8.
For GCNIMLPFWGCGKELNCLAGCVCQYYQSCG (designed binder) [VEGF_CKP9.54.69], the ELISA stood at 2.5 and the “S/N vs BSA” value is 21.7.
For GCNIMLPFWGCQADYACLAGCVCQYYQSCG (designed binder) [VEGF_CKP9.54.14], the ELISA worked out at 2.5 and the “S/N vs BSA” value was 23.5.
Turning to GCNIMLPFWGCGYDLQCLAGCVCQYYQSCG (designed binder) [VEGF_CKP9.54.87], the ELISA was 2.4 and the “S/N vs BSA” value came to 26.1.
For the molecule GCNIMLPFWGCGTNFLCLAGCVCQYYQSCG (designed binder) [VEGF_CKP9.54.31], the ELISA came out at 2.3 and the “S/N vs BSA” value came to 32.5.
The corresponding values for GCNIMLPFWGCGWSMDCLAGCVCQYYQSCG (designed binder) [VEGF_CKP9.54.76] are 2.7 and 42.2.
The corresponding values for GCNIMLPFWGCGWDQFCLAGCVCQYYQSCG (designed binder) [VEGF_CKP9.54.51] are 2.5 and 44.5.
As to GCNIMLPFWGCSGDFACLAGCVCQYYQSCG (designed binder) [VEGF_CKP9.54.64], the ELISA stood at 2.2 and the “S/N vs BSA” value stood at 22.4.
For the molecule GCNIMLPFWGCGKDFHCLAGCVCQYYQSCG (designed binder) [VEGF_CKP9.54.56], the ELISA was 2.3 and the “S/N vs BSA” value is 35.8.
The corresponding values for GCNIMLPFWGCNRDFLCLAGCVCQYYQSCG (designed binder) [VEGF_CKP9.54.48] are 2.5 and 34.9.
Regarding GCNIMLPFWGCSRDFDCLAGCVCQYYQSCG (designed binder) [VEGF_CKP9.54.44], the ELISA amounted to 2.4 and the “S/N vs BSA” value was found to be 34.4.
On to GCQLMQPFWGCKQDSDCLAGCVCRWYNSCG (designed binder) [VEGF_CKP9.L5.7], for which the ELISA is 1.4 and the “S/N vs BSA” value worked out at 18.9.
Consider GCPAIQNWKEHPCKQDSDCLAGCVCSWWPSLCG (designed binder) [VEGF_CKP5], for which the ELISA was 1.9 and the “S/N vs BSA” value is 28.4.
Consider GCHMMYDYCKQDSDCLAGCVCEMYDACG (designed binder) [VEGF_CKP3], for which the ELISA is 3.1 and the “S/N vs BSA” value stood at 42.9.

Another assay has as its target T2, LRP6 E1E2 protein. Nature of the assay: spot phage ELISA. For orientation: ELISA stands for enzyme-linked immunosorbent assay.
On to GCRTNRVKGGCKQDSDCLAGCVCGPNGFCG (designed binder) [LRP6_CKP1], for which the ELISA came out at 3.23 and the “S/N vs BSA” value is 45.5.
